Laboratory results from publication PMC4026020.

T1: MBP-AtTZF1 RR;MBP-AtTZF1 TZF (Arabidopsis thaliana;Arabidopsis …, UniProt O82307;O82307 86-128;129-195, |)
T1 sequence 1: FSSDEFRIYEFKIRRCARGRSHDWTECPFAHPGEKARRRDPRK
T1 sequence 2: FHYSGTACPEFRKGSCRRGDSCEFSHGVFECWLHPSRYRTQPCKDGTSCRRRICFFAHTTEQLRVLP

T2: MBP-AtTZF1 RR-TZF C101R/C136R/C171R (Arabidopsis thaliana, UniProt O82307 86-195, C101R;C136R;C171R)
T2 sequence: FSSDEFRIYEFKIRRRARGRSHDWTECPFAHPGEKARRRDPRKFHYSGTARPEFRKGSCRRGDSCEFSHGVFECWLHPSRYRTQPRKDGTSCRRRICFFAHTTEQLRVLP

T3: MBP-AtTZF1 RR-TZF C136R/C171R (Arabidopsis thaliana, UniProt O82307 86-195, C136R;C171R)
T3 sequence: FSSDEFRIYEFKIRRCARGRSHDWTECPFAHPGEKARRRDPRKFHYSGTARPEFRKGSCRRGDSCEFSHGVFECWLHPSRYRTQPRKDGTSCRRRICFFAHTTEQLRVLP

T4: MBP-AtTZF1 RR-TZF C101R (Arabidopsis thaliana, UniProt O82307 86-195, C101R)
T4 sequence: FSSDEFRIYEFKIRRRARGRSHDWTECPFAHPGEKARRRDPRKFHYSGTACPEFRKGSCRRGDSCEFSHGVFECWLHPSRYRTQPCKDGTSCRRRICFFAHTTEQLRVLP


Tests used:
Test in all cases: fluorescence anisotropy
[1] = biological target: T1, MBP-AtTZF1 RR;MBP-AtTZF1 TZF
[2] = biological target: T2, MBP-AtTZF1 RR-TZF C101R/C136R/C171R
[3] = biological target: T3, MBP-AtTZF1 RR-TZF C136R/C171R
MBP-AtTZF1 RR-TZF C101R = biological target: T4, MBP-AtTZF1 RR-TZF C101R

Binder	Kd [1] [nM]	Kd [2] [nM]	Kd [3] [nM]	Kd (MBP-AtTZF1 RR-TZF C101R) [nM]
UUUUUUUUUUUUUUUUUUU (ssRNA) [Fl-polyU]	4400 ± 100	3110 ± 80	1610 ± 40	810 ± 40
UAUUUAUUAUUUAUUUAUU (ssRNA) [Fl-ARE19]	610 ± 40		1540 ± 50	
